Source: US20230204567A1 (Takeda / Millennium, published 2023)

B1: Anti-ZIKV #2 (IgG, Clone 306-2) (antibody, V domains shown)
VH: QSLEESGGDLVKPGASLTLTCTASGFDFSDRYYMCWVRQAPGKGLEWIGCIYVGSGDTYYASWAKGRFTISRTSSTTVTLQMTRLTAADTATYFCARHPGTYFTLWGPGTLVTVSS
VL: DVVMTQTPSSVSAAVGGTVTINCQASQNIVNNLAWYQQRPGQPPKLLIYDTSTLASGVPSRFKGSGSGTEFTLTISDLECADAATYYCQTYYYYNKIINGFGGGTEVVVKG
notes: also called antibody 2; acceptor Ab of mAb pairs #1 to 3
B2: Anti-ZIKV #1 (IgG, Clone 242-3) (antibody, V domains shown)
VH: QAQLEESGGDLVKPEGSLTLTCTASGFSFTDRHYMCWIRQAPGKGLEWIACVYPGSSGSTYYASWARGRFTISKTSSTTVTLRMTSLTAADTATYFCARSSYPDSSGYSYGMDLWGPGTLVTVSS
VL: DIVMTQTPASVEAAVGGTVTIKCQASQNINSNLAWYQQKPGQRPKFLMYLTSKLASGVPSRFRGSGSGTQFTLTISDLECADAATYYCQTYYDISNYGYAFGGGTEVVVKG
notes: also called antibody 1; donor Ab of mAb pair #1

Experiments:
[1] = target: T1, inactivated DENV1 (West Pacific 74, Microbix) (Dengue virus serotype 1, UniProt P17763 281-775); assay: ELISA, antigen coated at 1 µg/mL, hybridoma supernatant
T1 construct: also called dengue virus serotype 1
T1 sequence (P17763 281-775 limits assumed): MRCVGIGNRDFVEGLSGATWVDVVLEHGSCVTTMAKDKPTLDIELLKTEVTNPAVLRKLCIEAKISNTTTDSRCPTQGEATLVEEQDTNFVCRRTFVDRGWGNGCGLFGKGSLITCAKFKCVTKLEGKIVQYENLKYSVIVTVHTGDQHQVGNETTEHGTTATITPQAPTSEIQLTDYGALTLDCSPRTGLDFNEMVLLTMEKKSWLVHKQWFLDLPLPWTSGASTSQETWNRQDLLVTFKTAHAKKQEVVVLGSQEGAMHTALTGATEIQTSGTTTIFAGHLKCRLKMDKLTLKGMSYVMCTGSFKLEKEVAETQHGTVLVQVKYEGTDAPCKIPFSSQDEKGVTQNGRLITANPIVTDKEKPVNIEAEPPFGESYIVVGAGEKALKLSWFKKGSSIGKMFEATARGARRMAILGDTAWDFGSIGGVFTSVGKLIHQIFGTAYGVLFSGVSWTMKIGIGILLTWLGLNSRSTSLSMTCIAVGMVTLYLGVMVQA

[2] = target: T2, inactivated DENV2 (16681; Microbix) (Dengue virus serotype 2, UniProt P29990 281-775); assay: as above
T2 construct: also called dengue virus serotype 2

[3] = target: T3, ZIKV E protein (Native Antigen) (Zika virus); assay: ELISA, antigen coated at 1 µg/mL, hybridoma supernatant, anti-rabbit IgG-HRP
T3 chain: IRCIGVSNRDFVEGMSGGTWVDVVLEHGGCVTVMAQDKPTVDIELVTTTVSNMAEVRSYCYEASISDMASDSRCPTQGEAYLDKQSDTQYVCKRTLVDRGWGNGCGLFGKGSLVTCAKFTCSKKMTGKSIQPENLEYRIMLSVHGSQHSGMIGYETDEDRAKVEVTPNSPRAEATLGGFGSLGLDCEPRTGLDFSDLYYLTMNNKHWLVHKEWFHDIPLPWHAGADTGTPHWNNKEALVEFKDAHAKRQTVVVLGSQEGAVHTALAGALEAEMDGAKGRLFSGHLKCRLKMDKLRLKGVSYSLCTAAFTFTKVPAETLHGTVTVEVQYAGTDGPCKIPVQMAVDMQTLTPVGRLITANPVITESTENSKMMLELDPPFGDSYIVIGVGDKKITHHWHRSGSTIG

[4] = target: T4, inactivated DENV3 (CH53489, Microbix) (Dengue virus serotype 3); assay: as above
T4 construct: also called dengue virus serotype 3

[5] = target: T5, inactivated DENV4 (TVP-360, Microbix) (Dengue virus serotype 4); assay: as above
T5 construct: also called dengue virus serotype 4

[6] = target: T1, inactivated DENV1 (West Pacific 74, …); assay: as above
[7] = target: T2, inactivated DENV2 (16681; Microbix); assay: as above

Binder	binding result [1]	binding result [2]	optical density (OD) [3]	optical density (OD) [4]	optical density (OD) [5]	optical density (OD) [6]	optical density (OD) [7]
B1	no binding	no binding	0.61 OD	0.034 OD	0.048 OD	0.037 OD	0.034 OD
B2	no binding	no binding	0.33 OD	0.04 OD	0.038 OD	0.04 OD	0.034 OD
